Source: article PMC10816986, “The Role of Key Amino Acids of the Human Fe(II)/2OG-Dependent Dioxygenase ALKBH3 in Structural Dynamics and Repair Activity toward Methylated DNA” (International Journal of Molecular Sciences, 2024)
Residue numbers refer to the chain shown, from its start. Names may count otherwise.

B1: wt ALKBH3: wild-type human Fe(II)/2OG-dependent dioxygenase ALKBH3 with N-terminal His-tag, expressed in E. coli (protein, UniProt Q96Q83 1-286, looked up)
Alpha-ketoglutarate-dependent …: MEEKRRRARVQGAWAAPVKSQAIAQPATTAKSHLHQKPGQTWKNKEHHLSDREFVFKEPQQVVRRAPEPRVIDREGVYEISLSPTGVSRVCLYPGFVDVKEADWILEQLCQDVPWKQRTGIREDITYQQPRLTAWYGELPYTYSRITMEPNPHWHPVLRTLKNRIEENTGHTFNSLLCNLYRNEKDSVDWHSDDEPSLGRCPIIASLSFGATRTFEMRKKPPPEENGDYTYVERVKIPLDHGTLLIMEGATQADWQHRVPKEYHSREPRVNLTFRTVYPDPRGAPW
modifications: N-terminal His-tag
notes: wild-type human Fe(II)/2OG-dependent dioxygenase ALKBH3 with N-terminal His-tag, expressed in E. coli
B2: Y143F ALKBH3: ALKBH3 mutant, Tyr143 replaced with Phe (protein, UniProt Q96Q83 1-286, looked up, variant Y143F)
Alpha-ketoglutarate-dependent …: B1 Alpha-ketoglutarate-dependent … with Y143F

Tested on: m3C_FRET substrate (m3C-containing DNA)
Assay: Stopped-flow FRET pre-steady-state kinetics of m3C DNA demethylation
Type: biochemical
Settings: for k1 × 10^−6 / k2 / k3 / kr (irreversible step of substrate hydroxylation) / k−1 / k−2 / k−3 / Kd: global fitting of SF data to Scheme 1; for Kd: read-out: Kd^Product (equilibrium dissociation constant of the enzyme–product complex); for Ka = K1 + K1 × K2 + K1 × K2 × K3: overall affinity for damaged DNA, Ki = ki/k−i
Description: In previous research, we employed a stopped-flow (SF) method to detect conformational changes in the dioxygenases AlkB and ALKBH2, as well as their substrates, throughout the catalytic cycle. The SF technique provides excellent opportunities for studying the conformational dynamics of protein–nucleic acid complexes under pre-steady-state conditions within the millisecond time range. Conformational transitions are typically detected by measuring the fluorescent signal from the tryptophan residues of the enzyme or fluorescent labels incorporated into the DNA substrate sequence. […] It should be noted that another common approach to detecting conformational dynamics based on measurement of the intrinsic Trp fluorescence of ALKBH3 was unsuccessful due to a low signal-to-noise ratio. The time-dependent FRET signal profiles following rapid (1 ms) mixing of equimolar amounts of enzyme and the m3C_FRET substrate in the presence of Fe(II) and 2OG ligands were obtained under near single-turnover conditions (Figure 3). […] In the case of the wt protein, the initial stage of the enzyme–substrate interaction was accompanied by a slight increase in the FRET signal between 20 ms and 2 s. Subsequently, from 10 s to 250 s, a significant quenching of fluorescence occurs, followed by stabilization at a constant level. The kinetic curve obtained for the Y143F mutant was similar to wt ALKBH3, except that the phase of decrease in the signal was shifted towards longer time scales (20–600 s).
For wt and Y143F ALKBH3, a series of SF traces were recorded across a range of m3C substrate concentrations from 0.5 to 4.0 µM (Figure 4). […] Additionally, a slight increase in signal, absent in the native protein, is discernible in the initial segment (1–5 ms) of the curves for Y143F ALKBH3, most likely indicative of the primary enzyme–substrate binding.
Table 1 summarizes the values of the rate constants describing the forward and reverse reactions of the mechanism, as well as the equilibrium dissociation constant of the enzyme–product complex. […] Subsequent isomerization of the enzyme–substrate complex is characterized by two equilibrium steps, which occur at half the rate in wt ALKBH3, yet with greater efficiency than for the Y143F protein. To assess the overall affinity of ALKBH3’s active site for damaged DNA, the equilibrium constant Ka = K1 + K1 × K2 + K1 × K2 × K3, where Ki = ki/k−i, was determined. […] In contrast, the rate of the step of irreversible hydroxylation of the methyl group by the native protein (kr^wt = 0.023 s^−1) is nearly twice as fast as that of the Y143F mutant (kr^Y143F = 0.013 s^−1). Furthermore, the equilibrium dissociation constant of the enzyme–product complex (Kd^Product) is almost an order of magnitude higher for wt ALKBH3. […] The substitution of Tyr143 with Phe leads to a reduction in the rate and efficiency of demethylation of the m3C substrate, likely due to perturbations in the structure of the catalytically competent complex and strong product binding, which complicates the enzyme’s transition to the next turnover.
Figure 3 Time courses of the FRET signal generated by the FAM/BHQ1 pair under interactions of wt, Y143F, Y143A, L177A, and H191A ALKBH3 with m3C-containing DNA. The fluorescence traces represent changes in the FRET signal after rapid mixing of 1.5 µM m3C_FRET substrate with 1.5 µM protein in the presence of 40 µM Fe(II) and 1 mM 2OG. Each curve was collected in a split mode within four time intervals (up to 0.1, 1, 50, and 500 or 1000 s) in 4–5 replicates.
Figure 4 Pre-steady-state kinetics of m3C-containing DNA demethylation by wt (A) and Y143F (B) ALKBH3 proteins.

Molecule | k1 (formation of the primary enzyme–substrate complex) [M⁻¹ s⁻¹] | k1 × 10^−6 [M^−1 s^−1] | k2 [s⁻¹] | k3 [s⁻¹] | kr (irreversible step of substrate hydroxylation) [s⁻¹] | k−1 [s⁻¹] | k−2 [s⁻¹] | k−3 [s⁻¹] | kr (irreversible step of substrate hydroxylation) (listed as wt) [s⁻¹] | Kd [nM] | Ka = K1 + K1 × K2 + K1 × K2 × K3 | kr (irreversible step of substrate hydroxylation) (listed as Y143F) [s⁻¹]
B1 | 9.4e+07 | 19 ± 3 | 2.9 ± 0.9 | 0.57 ± 0.12 | 0.023 ± 0.003 | 64 ± 5 | 2.8 ± 0.5 | 0.13 ± 0.01 | 0.023 | 720 | (1.9 ± 0.2) × 10^6 M^−1 | 
B2 | 1.9e+07 | 94 ± 3 | 6.1 ± 1.4 | 1.4 ± 0.1 | 0.013 ± 0.001 | 270 ± 26 | 7.7 ± 0.24 | 0.48 ± 0.03 |  | 83 | (1.4 ± 0.1) × 10^6 M^−1 | 0.013
